Test results: patent US20180086816A1

Target: prolactin-receptor on NB2-11 cells (rat lymphoma cells) (rat (NB2-11 rat lymphoma cells)) (UniProt P05710)
Assay: cell-based or functional assay

Chain of UniProt P05710 (P05710 20-610): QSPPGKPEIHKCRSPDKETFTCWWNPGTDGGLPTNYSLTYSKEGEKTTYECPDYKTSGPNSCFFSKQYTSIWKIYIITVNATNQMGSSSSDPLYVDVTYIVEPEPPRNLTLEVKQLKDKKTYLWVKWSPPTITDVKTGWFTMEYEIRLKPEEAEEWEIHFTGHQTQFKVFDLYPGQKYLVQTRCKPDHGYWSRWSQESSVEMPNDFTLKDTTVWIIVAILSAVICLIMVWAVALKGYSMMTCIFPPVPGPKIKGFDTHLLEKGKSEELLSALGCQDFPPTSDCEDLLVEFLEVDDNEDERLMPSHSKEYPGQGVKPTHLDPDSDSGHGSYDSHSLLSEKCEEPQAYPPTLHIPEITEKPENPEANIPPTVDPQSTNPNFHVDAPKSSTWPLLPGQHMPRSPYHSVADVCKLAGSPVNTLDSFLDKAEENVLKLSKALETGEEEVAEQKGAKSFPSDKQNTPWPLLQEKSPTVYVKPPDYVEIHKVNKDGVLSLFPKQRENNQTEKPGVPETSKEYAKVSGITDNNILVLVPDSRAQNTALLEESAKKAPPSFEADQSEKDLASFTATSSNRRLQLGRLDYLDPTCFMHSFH

With “CTP modified hGH (hGH with one CTP at the N terminus and two CTP at the C terminus, expressed in HeLa cells) (from UniProt P0DN86 138-165; P01241 27-217; P0DN86 138-165; P0DN86 138-165)” as the substance, how does the NB2-11 cell proliferation, WST formazan absorbance (OD), dose response 0.039 read?
Its NB2-11 cell proliferation, WST formazan absorbance (OD), dose response 0.039 is 593.

And the NB2-11 cell proliferation, WST formazan absorbance (OD), dose response 0.059?
Its NB2-11 cell proliferation, WST formazan absorbance (OD), dose response 0.059 is 684.

And the NB2-11 cell proliferation, WST formazan absorbance (OD), dose response 0.088?
Its NB2-11 cell proliferation, WST formazan absorbance (OD), dose response 0.088 is 858.

And the NB2-11 cell proliferation, WST formazan absorbance (OD), dose response 0.132?
The NB2-11 cell proliferation, WST formazan absorbance (OD), dose response 0.132 was 1050.

And the NB2-11 cell proliferation, WST formazan absorbance (OD), dose response 0.198?
Its NB2-11 cell proliferation, WST formazan absorbance (OD), dose response 0.198 is 1290.

And the NB2-11 cell proliferation, WST formazan absorbance (OD), dose response 0.296?
Its NB2-11 cell proliferation, WST formazan absorbance (OD), dose response 0.296 is 1570.

And the NB2-11 cell proliferation, WST formazan absorbance (OD), dose response 0.444?
The NB2-11 cell proliferation, WST formazan absorbance (OD), dose response 0.444 was 1800.

And the NB2-11 cell proliferation, WST formazan absorbance (OD), dose response 0.667?
The NB2-11 cell proliferation, WST formazan absorbance (OD), dose response 0.667 was 1970.

And the NB2-11 cell proliferation, WST formazan absorbance (OD), dose response 1?
Its NB2-11 cell proliferation, WST formazan absorbance (OD), dose response 1 is 2110.
